Data as given in patent US6790646B2, “Mutants of monoamine oxidase B” (Research Development Foundation, priority 1998, dated 2004).

Assays:
MAO B [1] = assay: Kinetic analysis of wild-type and mutant MAO B with [14C]PEA substrate (transfected COS-7 cell homogenates); assay type: biochemical, human; details: PEA substrate; activity too low to determine kinetic parameters
Method: (§1) The wild-type and mutant MAO B enzymes were expressed in mammalian COS-7 cells, and the enzymatic properties of the native enzyme and its mutant enzymes were determined and compared. Wild-type and mutant MAO B cDNAs were transiently transfected into COS-7 cells by electroporation. Cells were harvested during late log phase growth and resuspended to a concentration of 3.125×10^6 cells/ml in DMEM supplemented with 10% fetal bovine serum (FBS). Fifteen μg of normal or mutant cDNA were added to 0.8 ml (2.5×10^6 cells) of cell suspension. Electroporation was carried out in a Bio-Rad Gene Pulser with a setting of 0.25 kV and 500 μF. Cells were resuspended in 15 ml of DMEM/FBS and incubated at 37° C. with 5% CO2 for 48 h.
(§2) Aliquots (20 μl) of transfected COS-7 cell homogenates were incubated for 10 min at 37° C. in the presence of various concentrations of [^14C]PEA (20 mCi/mmol) or [^14C]benzylamine (10 mCi/mmol) in 50 mM sodium phosphate buffer, pH 7.5 (200 μl total volume). Substrate concentrations ranged from 0.25-2.5 times the Km value (determined in pilot experiments) to yield 10 equally-spaced reciprocal increments. Parallel assays were carried out with untransfected COS-7 cell lysates as a control. Reactions were stopped by addition of 25 μl of 6 N HCl and the deaminated products were extracted by vortexing for 30 seconds with 500 μl of toluene or toluene:ethyl acetate (1:1) for benzylamine or PEA, respectively. Samples were processed as described previously (28). Apparent Km and Vmax values were determined by linear regression analysis of Lineweaver-Burk plots. Kcat values were calculated from the Vmax values divided by the concentration of wild-type or mutant MAO B determined in each experiment. Expression levels of wild-type or mutant MAO B were determined in triplicate for six separate experiments as follows: wild-type=11.1+2.07; F423A=9.30+1.89; E427Q=10.3+1.29; T428A=10.2+2.07; T428S=10.2+1.53 pmol MAO B/mg protein. Data are given as means +S.E.M. pmol/mg of protein determined using a subunit molecular weight of 58,800.

MAO B [2] = target: T1, MAO B (Homo sapiens, UniProt P27338, F423A); assay: as above; assay type: biochemical; details: substrate not stated in the sentence (Tables 1 and 2: PEA and benzylamine)
T1 construct: expressed in transfected cells; host or cells: COS-7
T1 sequence (P27338 2-520 F423A): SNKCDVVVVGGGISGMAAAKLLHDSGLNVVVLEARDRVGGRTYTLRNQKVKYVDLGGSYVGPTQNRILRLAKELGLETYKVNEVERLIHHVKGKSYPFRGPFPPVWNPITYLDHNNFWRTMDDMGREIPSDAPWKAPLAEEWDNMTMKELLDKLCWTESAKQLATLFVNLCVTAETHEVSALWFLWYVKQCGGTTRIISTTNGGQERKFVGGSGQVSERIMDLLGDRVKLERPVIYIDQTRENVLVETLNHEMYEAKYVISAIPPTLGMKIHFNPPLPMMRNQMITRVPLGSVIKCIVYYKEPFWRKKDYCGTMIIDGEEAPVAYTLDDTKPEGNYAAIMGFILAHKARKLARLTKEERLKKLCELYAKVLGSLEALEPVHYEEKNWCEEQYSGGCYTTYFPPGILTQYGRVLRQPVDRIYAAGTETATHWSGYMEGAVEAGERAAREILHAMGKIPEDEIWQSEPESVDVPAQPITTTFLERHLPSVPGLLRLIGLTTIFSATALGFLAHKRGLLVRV
Method: as §1, §2

MAO B [3] = assay: pH profiles of wild-type and mutant MAO B enzymatic activity with [14C]benzylamine; assay type: biochemical, human; details: pH 6.0 to 9.0, 500 μM benzylamine
Method: Aliquots (20 μl) of transfected COS-7 cell homogenates were incubated for 10 min at 37° C. in the presence of 500 μM (^14C)benzylamine (2.5 mCi/mmol) in 50 mM sodium phosphate buffer, pH 6.0, 6.5, 7.0, 7.5, 8.0, 8.5 or 9.0 (200 μl total volume). Reactions were stopped by addition of 25 μl of 6 N HCl. Parallel assays were carried out with untransfected COS-7 homogenates as a control. Samples were processed as previously described (28) and the derived specific activity values (nmol/min·mg protein) were divided by wild-type or mutant MAO B concentration, determined for each experiment, to obtain enzymatic activity values (nmol/min·m g MAO B). Enzymatic activities were determined in duplicate for three separate experiments.
To examine the possibility that the mutation effects a proton-dependent step in the reaction, the enzymatic activity of the mutant and wild-type MAO B enzymes was determined at different pH values from 6.0 to 9.0 (FIG. 4).

COS-7 cells = assay: Expression levels of wild-type or mutant MAO B in transfected COS-7 cells; details: transiently transfected COS-7 cells, triplicate, six experiments, mean + S.E.M., subunit molecular weight 58,800
Method: as §1, §2

MAO B [4] = assay: Kinetic analysis of wild-type and mutant MAO B with [14C]benzylamine substrate (transfected COS-7 cell homogenates); assay type: biochemical, human; details: activity too low to determine kinetic parameters
Method: as §1, §2

- decrease in activity compared to the wild-type enzyme (MAO B [2]): > 95 % reduction
B1: F423 A: human MAO B mutant, Phe residue at position 423 changed to Ala (protein, UniProt P27338 2-520, looked up, variant F423A)
Amine oxidase …: SNKCDVVVVGGGISGMAAAKLLHDSGLNVVVLEARDRVGGRTYTLRNQKVKYVDLGGSYVGPTQNRILRLAKELGLETYKVNEVERLIHHVKGKSYPFRGPFPPVWNPITYLDHNNFWRTMDDMGREIPSDAPWKAPLAEEWDNMTMKELLDKLCWTESAKQLATLFVNLCVTAETHEVSALWFLWYVKQCGGTTRIISTTNGGQERKFVGGSGQVSERIMDLLGDRVKLERPVIYIDQTRENVLVETLNHEMYEAKYVISAIPPTLGMKIHFNPPLPMMRNQMITRVPLGSVIKCIVYYKEPFWRKKDYCGTMIIDGEEAPVAYTLDDTKPEGNYAAIMGFILAHKARKLARLTKEERLKKLCELYAKVLGSLEALEPVHYEEKNWCEEQYSGGCYTTYFPPGILTQYGRVLRQPVDRIYAAGTETATHWSGYMEGAVEAGERAAREILHAMGKIPEDEIWQSEPESVDVPAQPITTTFLERHLPSVPGLLRLIGLTTIFSATALGFLAHKRGLLVRV
- activity relative to wild-type (MAO B [1]): (<5% wt)
- pH profile of enzymatic activity (MAO B [3]): fairly similar to wild-type MAO B
- Expression level (COS-7 cells): 9.30+1.89 pmol MAO B/mg protein
- activity relative to wild-type (MAO B [4]): (<5% wt)
